Measurements taken from patent publication US20240011005A1 (HUIDAGENE THERAPEUTICS, published 2024).
Residue numbers refer to the chain shown, from its start.

Key:
[1] = tested on: T1, RhCas12f1 (ME-A.1) (Ruminiclostridium herbifermentans); assay: cell_activity
T1 sequence: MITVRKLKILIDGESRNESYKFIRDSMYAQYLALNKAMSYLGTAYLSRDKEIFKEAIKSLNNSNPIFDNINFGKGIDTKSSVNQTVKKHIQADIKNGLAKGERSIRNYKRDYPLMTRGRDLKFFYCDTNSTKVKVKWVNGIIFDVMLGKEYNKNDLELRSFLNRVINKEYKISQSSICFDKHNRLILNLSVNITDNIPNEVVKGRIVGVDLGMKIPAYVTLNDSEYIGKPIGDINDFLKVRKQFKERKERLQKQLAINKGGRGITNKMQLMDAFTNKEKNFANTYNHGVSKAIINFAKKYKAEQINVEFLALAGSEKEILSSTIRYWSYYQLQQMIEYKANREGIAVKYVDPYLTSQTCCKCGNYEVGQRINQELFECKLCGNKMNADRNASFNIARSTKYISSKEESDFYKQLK

[2] = tested on: T2, RhCas12f1-A273R A273R (Ruminiclostridium herbifermentans); assay: cell_activity; details: PAM CCCA
T2 sequence: T1 sequence with A273R

[3] = tested on: T3, RhCas12f1-I264R I264R (Ruminiclostridium herbifermentans); assay: cell_activity; details: PAM CCCA
T3 sequence: T1 sequence with I264R

[4] = tested on: T4, RhCas12f1-L270R (enRhCas12f1) (Ruminiclostridium herbifermentans); assay: cell_activity; details: PAM CCCA
T4 sequence: T1 sequence with L270R

[5] = tested on: T5, RhCas12f1-Y125R Y125R (Ruminiclostridium herbifermentans); assay: cell_activity; details: PAM CCCA
T5 sequence: T1 sequence with Y125R

[6] = tested on: T6, RhCas12f1-S130R S130R (Ruminiclostridium herbifermentans); assay: cell_activity; details: PAM CCCA
T6 sequence: T1 sequence with S130R

[7] = tested on: T7, RhCas12f1-A56R A56R (Ruminiclostridium herbifermentans); assay: cell_activity; details: PAM CCCA
T7 sequence: T1 sequence with A56R

[8] = tested on: T8, RhCas12f1-T131R T131R (Ruminiclostridium herbifermentans); assay: cell_activity; details: PAM CCCA
T8 sequence: T1 sequence with T131R

[9] = tested on: T9, OsCas12f1 (ME-B.3) (Oscillibacter sp.); assay: cell_activity
T9 sequence: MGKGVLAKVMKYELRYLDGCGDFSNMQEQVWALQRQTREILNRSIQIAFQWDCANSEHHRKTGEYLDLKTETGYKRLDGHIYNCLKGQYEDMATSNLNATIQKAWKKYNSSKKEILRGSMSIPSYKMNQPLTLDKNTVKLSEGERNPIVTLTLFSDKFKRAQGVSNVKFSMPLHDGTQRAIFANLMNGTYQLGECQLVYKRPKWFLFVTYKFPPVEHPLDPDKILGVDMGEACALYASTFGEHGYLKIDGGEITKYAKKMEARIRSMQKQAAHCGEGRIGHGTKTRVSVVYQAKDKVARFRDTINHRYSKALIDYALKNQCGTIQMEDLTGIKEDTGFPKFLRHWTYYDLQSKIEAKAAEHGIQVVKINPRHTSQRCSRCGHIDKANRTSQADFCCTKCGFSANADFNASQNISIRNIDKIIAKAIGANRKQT

[10] = target: the molecule itself; assay: size-exclusion chromatography (Superdex 200 Increase 10/300) of Cas12f1 RNP assembled with sgRNA; self-association (homodimer)

How did the activity ([1]; PAM CCCA, HEK293T) turn out when “ACGGUUGAUUUAGCAACCGAAGUCUGAGGGCAUGUAGAAAAAAGUAUAGGUAUAUACCAACAUACUUGCAUUGCCACUCGGAAAGGGUUAACCUUGGUCAUUGUGUUACCGACCAAGCAUUCCAGAAAUGGAAUGUAAAUCCAUUACAGUAGGAGCAUACUUUUAUUUUUUU / CCCACCATTACAGTAGGAGCATAC / GTATGCTCCTACTGTAATGGTGGG” was run?
Its activity is 61.5 % GFP+.

What about the activity [2] of the same molecule?
Its activity is 75.3 % GFP+.

And the activity [3]?
The activity was 75 % GFP+.

And the activity [4]?
The activity was 73.8 % GFP+.

What about the activity [5] of the same molecule?
The activity was 73.3 % GFP+.

And the activity [6]?
Its activity is 76.1 % GFP+.

What about the activity [7] of the same molecule?
Its activity is 73 % GFP+.

And the activity [8]?
Its activity is 77.2 % GFP+.

With “AGGGACGACUUCCCGUCCCAAAAUCGAGACAGUAGCCGUAAAACUUUGAGUUUCAGAGUGGGCGACACACUCGAAAAGGUUAAGAUAUGCACAUAGUAAUCCGUGCAUGAGCCGCGAAAGCGGCUUGAAGGGGGUCUUCGAGAAGACCUUUUUAUUUUUUU / TTTCCCATTACAGTAGGAGCATACGGG / CCCGTATGCTCCTACTGTAATGGGAAA” as the molecule, how does the activity ([9]; non-targeting spacer) read?
The activity was 0.55 % GFP+.

Which binding signal (fold vs WT scaffold) ([9]; PAM TTTC) does the source give for “AGGGCCGACUUCCCGGCCCAAAAUCGAGACAGUAGCCGUAAAACUUUGAGUUUCAGAGUGGGCGACACACUCGAAAAGGUUAAGAUAUGCACAUAGUAAUCCGUGCAUGAGCCGCGAAAGCGGCUUGAAGGCCAUUACAGUAGGAGCAUACUUUUAUUUUUUU / TTTCCCATTACAGTAGGAGCATACGGG / CCCGTATGCTCCTACTGTAATGGGAAA” here?
The binding signal (fold vs WT scaffold) was 1.56.

With “ACGGUUGAUUUAGCAACCGAAGUCUGAGGGCAUGUAGAAAAAAGUAUAGGUAUAUACCAACAUACUUGCAUUGCCACUCGGAAAGGGUUAACCUUGGUCAUUGUGUUACCGACCAAGCAUUCCAGAAAUGGAAUGUAAAUGGGUCUUCGAGAAGACCUUUUUAUUUUUUU / CCCACCATTACAGTAGGAGCATAC / GTATGCTCCTACTGTAATGGTGGG” as the molecule, how does the activity ([1]; non-targeting spacer) read?
The activity was 0.62 % GFP+.

B1: OsCas12f1 (ME-B.3) (enzyme)
chain: T9 sequence
notes: Purified recombinant protein used in size-exclusion chromatography; Entered as the single polypeptide; also called WTOsCas12f1; Cas12f1 from Oscillibacter sp; not shown: C-terminal 6xHis tag
Does B1 bind [10]?
Result: binds

B2: RhCas12f1 (ME-A.1) (enzyme)
chain: T1 sequence
notes: Purified recombinant protein used in size-exclusion chromatography; Entered as the single polypeptide; also called WTRhCas12f1; Cas12f1 from Ruminiclostridium herbifermentans; not shown: C-terminal 6xHis tag
Does B2 bind [10]?
Result: binds
